These results are taken from publication PMC4140853 (PLoS Pathogens, 2014).

Numbering of substitutions follows the chain as printed. Names may count otherwise.

For assay [1], the target named is HLA-DQ2 (A1*0501/B1*0201) with the CLIP1 peptide covalently linked to the beta chain, soluble, Fos-Jun leucine zipper. Description: BLI; Octet RED96; site-specifically biotinylated HLA-DQ2 (CLIP1) immobilised on streptavidin (SA) tips; analyte gp42 or preformed gHgL/gp42 complex; equilibrium (steady state) analysis of the same data. In general terms: BLI is a label-free optical method that tracks binding on a fibre tip over time.

The target is the same in assay [2]. Description: BLI.
Assay [3] deals with T1, EBV gHgL (soluble gH residues 18-679 / gL residues 24-137 heterodimer) (Epstein-Barr virus, UniProt P03231;P03212). Description: cell-based or functional assay.
Assay [4] deals with T1, EBV gHgL (soluble gH residues 18-679 / …). Kind of assay: BLI. The conditions noted are these: both partners purified.
Assay [5] shares this target. Kind of assay: BLI; Octet RED96; biotinylated gHgL immobilised on streptavidin (SA) tips, soluble gp42 as analyte; equilibrium analysis of the same data. The conditions noted are these: both partners purified.
The target is the same in assay [6]. Kind of assay: BLI. The conditions noted are these: both partners purified. This is another data set of the same source.
Assay [7] shares this target. Description: SEC; Superdex 200 gel filtration of purified proteins and their mixtures; 20 mM Tris, 150 mM NaCl, pH 7.4; peak components verified by SDS-PAGE (data not shown). The conditions noted are these: both partners purified.

The term Kd denotes a measure of binding affinity in units of concentration. A lower Kd goes with a tighter complex. Consider “EBV gp42 C114S single mutant, soluble (residues 33-223) (from UniProt P03205 33-223) (natural protein)”, for which the Kd in assay [1] was 97 nM. In assay [2], the KD1 (2:1 heterogeneous ligand fit, primary component) turned out to be 88.8 nM and the KD2 (2:1 heterogeneous ligand fit, secondary component) worked out at 3.45 nM.
Turning to “EBV gp42 C114S/I159C double mutant (referred to as I159C), soluble (residues 33-223) (from UniProt P03205 33-223) (natural protein)”, in assay [1], the Kd is 29 nM. In assay [2], this molecule returned a KD1 (2:1 heterogeneous ligand fit, primary component) of 59 nM and a KD2 (2:1 heterogeneous ligand fit, secondary component) of 1.25 nM.

B1: EBV gp42 I159C (C114S/I159C), reduced with TCEP and alkylated with iodoacetamide (IAA) (natural protein)
chain: GGGRVAAAAITWVPKPNVEVWPVDPPPPVNFNKTAEQEYGDKEVKLPHWTPTLHTFQVPQNYTKANCTYCNTREYTFSYKGSCFYFTKKKHTWNGCFQACAELYPCTYFYGPTPDILPVVTRNLNACESLWVGVYRVGEGNWTSLDGGTFKVYQIFGSHCTYVSKFSTVPVSHHECSFLKPCLCVSQRSNS
modifications: introduced cysteine 159 reduced with TCEP and alkylated with iodoacetamide (IAA)
Take B1: the “virus-free cell-cell fusion (luciferase) of CHO cells expressing gB and gHgL with Daudi B cells, triggered by 0.1 or 1.0 µg soluble gp42 protein; activity relative to wt gp42” value in assay [3] is < 10 % of wild type.

B2: EBV gp42 wild type, soluble (residues 33-223) (natural protein)
chain: B1 chain with S82C, C127I
notes: also called gp42 w.t; wt gp42; source: High Five insect cells (baculovirus), secreted, purified (Talon or Ni-NTA, Superdex 200)
Usually stoichiometry N stands for a count of units in the complex or per binding partner. As to B2, the Kd in assay [4] was 1.41 nM; in assay [5], 4.1 nM. Further, the t1/2 for dissociation in assay [6] is ~30 min. Moreover, in assay [7], the “stoichiometry N” value was found to be 1 gp42 per gHgL.

B3: EBV gp42 C114S single mutant, soluble (residues 33-223) (natural protein)
chain: B1 chain with C127I
notes: source: High Five insect cells (baculovirus), secreted, purified (Talon or Ni-NTA, Superdex 200)
The term koff denotes the rate constant with which the complex falls apart. Usually kon stands for the second-order rate constant of association. A low value points to slower complex formation. In assay [4], B3 displayed a Kd of 1.29 nM, a koff of 0.000529 s⁻¹ and a kon of 409000 M⁻¹ s⁻¹. In assay [5], this molecule gave a Kd of 6.3 nM.

B4: EBV gp42 C114S/I159C double mutant (referred to as I159C), soluble (residues 33-223) (natural protein)
chain: B1 chain
notes: as for B3
B4: in assay [4], the Kd amounted to 0.77 nM, the koff turned out to be 0.000295 s⁻¹ and the kon was determined as 381000 M⁻¹ s⁻¹. The Kd in assay [5] came out at 13 nM.
